Common to all, as to assay: cryo-EM structure
For experiment [1], the target named is ApCsm6 H369A (Actinomyces procaprae).
Experiment [2] addresses Actinomyces procaprae Csm6 (ApCsm6), wild type (Actinomyces procaprae).
For experiment [3], the target named is ApCsm6 R723A (Actinomyces procaprae).

Consider ApCsm6 H369A (enzyme), for which the stoichiometry N in experiment [1] turned out to be 4.
On to “Actinomyces procaprae Csm6 (ApCsm6), wild type (enzyme)”, for which the stoichiometry N in experiment [2] was determined as 4.
In experiment [3], ApCsm6 R723A (enzyme) registered a stoichiometry N of 4.

One may read the stoichiometry N as a count of units in the complex or per binding partner.

These data come from paper doi:10.1101/2025.10.25.684504.
